In experiment [1] the target is human IL1RAP on cells (human) (UniProt Q9NPH3). Nature of the experiment: cell-based or functional assay.
Experiment [2] concerns the target T1, human IL1RAP (human, UniProt Q9NPH3 21-367, limits assumed, biotinylated in the ELISA screens (site not stated)).
T1 construct: also called huIL1RAP; IL1RAP antigen
T1 sequence (looked up): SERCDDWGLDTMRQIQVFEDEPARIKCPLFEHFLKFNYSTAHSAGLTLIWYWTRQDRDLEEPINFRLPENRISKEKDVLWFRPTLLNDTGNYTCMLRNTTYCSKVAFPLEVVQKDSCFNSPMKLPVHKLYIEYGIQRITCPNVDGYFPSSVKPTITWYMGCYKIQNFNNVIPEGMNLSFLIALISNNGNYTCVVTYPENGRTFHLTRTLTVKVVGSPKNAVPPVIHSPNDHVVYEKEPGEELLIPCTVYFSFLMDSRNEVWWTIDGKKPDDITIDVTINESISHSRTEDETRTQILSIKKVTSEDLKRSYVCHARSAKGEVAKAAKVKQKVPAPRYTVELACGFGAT
Kind of experiment: ELISA: Fab constant (4 nM) captured on Fd coat (67 nM), Biot-hu IL1RAP titrated from 6.8 nM (the concentration axis is the antigen), SA-HRP 1:4000. A general note: In an ELISA, binding on a coated surface is turned into a signal by an enzyme label.

The target of experiment [3] is T1, human IL1RAP. The experiment is described as above. This is another data set of the same source.
For experiment [4], the target named is T1, human IL1RAP. Kind of experiment: ELISA of point mutant IgG (light chain mutant with the parental chimeric heavy chain, CHO-E expression), one bar each, concentration not given. The source says: For light chain 13 variants (T25A, E27Q, N28S, N30S, Y50A, K52S, T53Y, A55Q, E56S, H90Q, H91S, G93S and S95P) and 19 heavy chain variants (Y27G, I28T, L30S, T31S, W33Y, M34I, N35S, Q50R, F521, A541, S55L, D56G, S57I, T58A, N61A, E62Q, M63K, K65Q and D66G) were generated separately in the vector pTT5 (See FIG. 3A/B). The light chain mutants were paired with the parental chimeric heavy chain and heavy chain mutants were paired with parental chimeric light chain for expression analysis in CHO-E cells for 7 days. The resulting variants were evaluated for binding in ELISA experiments and compared to the parental chimeric IgG which has mouse variable region but human constant regions. For light chain variants, six point mutants VK-T25A, E27Q, N28S, N30S, K52S and T53Y depicted binding similar to chimeric IgG (+10% control; FIG. 3A) while for heavy chain […] point mutants VH-I28T, L30S, M34I, N35S, D56G, T58A, N61A, E62Q, M63K, K65Q and D66G depicted similar binding as chimeric IgG (+10% control; FIG. 3B).

Experiment [5] has as its target T1, human IL1RAP. Nature of the experiment: ELISA, antigen titration: Fab (1:5) captured on anti-Fd coat 700 ng/ml (4.7 nM), IL1RAP antigen titrated (the concentration axis is the antigen), SA-HRP 1:4000.

Where two headings read alike, the source gives them in different places.

B1: CAN04 (antibody, INN chains, looked up, V domains shown)
VH: QVQLVQSGAEVKKPGSSVKVSCKASGYAFTSSWMNWVRQAPGQGLEWMGRIYPGDGNTHYAQKFQGRVTLTADKSTSTAYMELSSLRSEDTAVYYCGEGYLDPMDYWGQGTLVTVSS
VL: DIQMTQSPSSLSASVGDRVTITCQASQGINNYLNWYQQKPGKAPKLLIHYTSGLHAGVPSRFSGSGSGTDYTLTISSLEPEDVATYYCQQYSILPWTFGGGTKVEIK
For the molecule B1, in experiment [1], the IC90 IFN-gamma release (WB), IL-33 was over 1000 nM; the IC90 IL-8 release (NCI-H292), IL1-B is over 1000 nM; the IC90 IL-8 release (NCI-H292), IL-1A was over 1000 nM; the IC90 IL-8 release (NCI-H292), IL-33 came out at 46 nM. Also, in experiment [1], the IC90 IL-8 release (NCI-H292), IL-36G is over 1000 nM; the IC90 MIP-1B release (WB), IL1-B amounted to 125 nM; the IC90 MIP-1B release (WB), IL-1A is over 1000 nM; the IC90 MIP-1B release (WB), IL-36G came out at 43 nM. Besides, in experiment [1], the IC90 Nf-KB activation (HEK-Blue), IL1-B was 56 nM; the IC90 Nf-KB activation (HEK-Blue), IL-1A was over 1000 nM; the IC90 Nf-KB activation (HEK-Blue), IL-33 is over 1000 nM; the IC90 Nf-KB activation (HEK-Blue), IL-36G is over 1000 nM.

B2: IL1RAP G011 chimeric Fab (Fab, V domains shown)
VH: QVHLQQSGPELVRPGTSVKISCEASGYIFLTYWMNWVKQRPGQGLEWIGQIFPASDSTYYNEMFKDKARFTVDKSSSTAYMQFSSLTSEDTAVYFCARSGPYSYYAGGYALDYWGQGTSVTVSS
VL: DIQMTQSPASLSASVGETVTITCRTSENINSYLAWYQQKQGKSPQLLVHYAKTLAEGVPSRFSGSGSGTQFSLKINSLKPEDFGSYYCQHHYGTSLTFGAGTKLELK
notes: Mouse VK and VH fused to human Ck and CH1; expressed in E. coli (periplasmic extract or supernatant); also called mouse Fab; chimeric parent anti-IL1RAP GO11 Fab
For B2, the “EC50 (read off the curve)” value with human IL1RAP [2] and in the experiment with human IL1RAP [3] was about 400 pM throughout.

B3: VK-Y50A (antibody, V domains shown)
VH: QVHLQQSGPELVRPGTSVKISCEASGYIFLTYWMNWVKQRPGQGLEWIGQIFPASDSTYYNEMFKDKARFTVDKSSSTAYMQFSSLTSEDTAVYFCARSGPYSYYAGGYALDYWGQGTSVTVSS
VL: DIQMTQSPASLSASVGETVTITCRTSENINSYLAWYQQKQGKSPQLLVHAAKTLAEGVPSRFSGSGSGTQFSLKINSLKPEDFGSYYCQHHYGTSLTFGAGTKLELKR
notes: germlining point mutant, paired with the parental chimeric heavy chain; also called GO11 chimeric IgG, light chain point mutant Y50A; copies: 2 + 2
For the molecule B3, in the experiment with human IL1RAP [4], the binding result is on record as “binds”.

B4: VK-G93S (antibody, V domains shown)
VH: QVHLQQSGPELVRPGTSVKISCEASGYIFLTYWMNWVKQRPGQGLEWIGQIFPASDSTYYNEMFKDKARFTVDKSSSTAYMQFSSLTSEDTAVYFCARSGPYSYYAGGYALDYWGQGTSVTVSS
VL: DIQMTQSPASLSASVGETVTITCRTSENINSYLAWYQQKQGKSPQLLVHYAKTLAEGVPSRFSGSGSGTQFSLKINSLKPEDFGSYYCQHHYSTSLTFGAGTKLELKR
notes: germlining point mutant, paired with the parental chimeric heavy chain; also called GO11 chimeric IgG, light chain point mutant G93S; copies: 2 + 2
As for B4, the binding result with human IL1RAP [4] was “binds”.

B5: VK-A55Q (antibody, V domains shown)
VH: QVHLQQSGPELVRPGTSVKISCEASGYIFLTYWMNWVKQRPGQGLEWIGQIFPASDSTYYNEMFKDKARFTVDKSSSTAYMQFSSLTSEDTAVYFCARSGPYSYYAGGYALDYWGQGTSVTVSS
VL: DIQMTQSPASLSASVGETVTITCRTSENINSYLAWYQQKQGKSPQLLVHYAKTLQEGVPSRFSGSGSGTQFSLKINSLKPEDFGSYYCQHHYGTSLTFGAGTKLELKR
notes: germlining point mutant, paired with the parental chimeric heavy chain; also called GO11 chimeric IgG, light chain point mutant A55Q; copies: 2 + 2
On to B5, for which the binding result in the experiment with human IL1RAP [4] was “binds”.

B6: GO11 chimeric IgG, light chain point mutant VK-N30S (antibody, V domains shown)
VH: QVHLQQSGPELVRPGTSVKISCEASGYIFLTYWMNWVKQRPGQGLEWIGQIFPASDSTYYNEMFKDKARFTVDKSSSTAYMQFSSLTSEDTAVYFCARSGPYSYYAGGYALDYWGQGTSVTVSS
VL: DIQMTQSPASLSASVGETVTITCRTSENISSYLAWYQQKQGKSPQLLVHYAKTLAEGVPSRFSGSGSGTQFSLKINSLKPEDFGSYYCQHHYGTSLTFGAGTKLELK
notes: Light chain mutant paired with the parental chimeric heavy chain; IgG backbone, expressed in CHO-E
For the molecule B6, the binding result with human IL1RAP [4] was “binds”.

B7: GO11 chimeric IgG, light chain point mutant VK-T25A (antibody, V domains shown)
VH: QVHLQQSGPELVRPGTSVKISCEASGYIFLTYWMNWVKQRPGQGLEWIGQIFPASDSTYYNEMFKDKARFTVDKSSSTAYMQFSSLTSEDTAVYFCARSGPYSYYAGGYALDYWGQGTSVTVSS
VL: DIQMTQSPASLSASVGETVTITCRASENINSYLAWYQQKQGKSPQLLVHYAKTLAEGVPSRFSGSGSGTQFSLKINSLKPEDFGSYYCQHHYGTSLTFGAGTKLELK
notes: as for B6
Regarding B7, in the experiment with human IL1RAP [4], the binding result is given as “binds”.

B8: GO11 chimeric IgG, light chain point mutant VK-K52S (antibody, V domains shown)
VH: QVHLQQSGPELVRPGTSVKISCEASGYIFLTYWMNWVKQRPGQGLEWIGQIFPASDSTYYNEMFKDKARFTVDKSSSTAYMQFSSLTSEDTAVYFCARSGPYSYYAGGYALDYWGQGTSVTVSS
VL: DIQMTQSPASLSASVGETVTITCRTSENINSYLAWYQQKQGKSPQLLVHYASTLAEGVPSRFSGSGSGTQFSLKINSLKPEDFGSYYCQHHYGTSLTFGAGTKLELK
notes: as for B6
B8: the binding result in the experiment with human IL1RAP [4] is recorded as “binds”.

B9: GO11 chimeric IgG, light chain point mutant VK-N28S (antibody, V domains shown)
VH: QVHLQQSGPELVRPGTSVKISCEASGYIFLTYWMNWVKQRPGQGLEWIGQIFPASDSTYYNEMFKDKARFTVDKSSSTAYMQFSSLTSEDTAVYFCARSGPYSYYAGGYALDYWGQGTSVTVSS
VL: DIQMTQSPASLSASVGETVTITCRTSESINSYLAWYQQKQGKSPQLLVHYAKTLAEGVPSRFSGSGSGTQFSLKINSLKPEDFGSYYCQHHYGTSLTFGAGTKLELK
notes: as for B6
As for B9, the binding result in the experiment with human IL1RAP [4] is recorded as “binds”.

B10: GO11 chimeric IgG, light chain point mutant VK-E27Q (antibody, V domains shown)
VH: QVHLQQSGPELVRPGTSVKISCEASGYIFLTYWMNWVKQRPGQGLEWIGQIFPASDSTYYNEMFKDKARFTVDKSSSTAYMQFSSLTSEDTAVYFCARSGPYSYYAGGYALDYWGQGTSVTVSS
VL: DIQMTQSPASLSASVGETVTITCRTSQNINSYLAWYQQKQGKSPQLLVHYAKTLAEGVPSRFSGSGSGTQFSLKINSLKPEDFGSYYCQHHYGTSLTFGAGTKLELK
notes: as for B6
Turning to B10, the binding result in the experiment with human IL1RAP [4] is “binds”.

B11: VK-E56S (antibody, V domains shown)
VH: QVHLQQSGPELVRPGTSVKISCEASGYIFLTYWMNWVKQRPGQGLEWIGQIFPASDSTYYNEMFKDKARFTVDKSSSTAYMQFSSLTSEDTAVYFCARSGPYSYYAGGYALDYWGQGTSVTVSS
VL: DIQMTQSPASLSASVGETVTITCRTSENINSYLAWYQQKQGKSPQLLVHYAKTLASGVPSRFSGSGSGTQFSLKINSLKPEDFGSYYCQHHYGTSLTFGAGTKLELKR
notes: germlining point mutant, paired with the parental chimeric heavy chain; also called GO11 chimeric IgG, light chain point mutant E56S; copies: 2 + 2
Regarding B11, the binding result in the experiment with human IL1RAP [4] is “binds”.

B12: VK-S95P (antibody, V domains shown)
VH: QVHLQQSGPELVRPGTSVKISCEASGYIFLTYWMNWVKQRPGQGLEWIGQIFPASDSTYYNEMFKDKARFTVDKSSSTAYMQFSSLTSEDTAVYFCARSGPYSYYAGGYALDYWGQGTSVTVSS
VL: DIQMTQSPASLSASVGETVTITCRTSENINSYLAWYQQKQGKSPQLLVHYAKTLAEGVPSRFSGSGSGTQFSLKINSLKPEDFGSYYCQHHYGTPLTFGAGTKLELKR
notes: germlining point mutant, paired with the parental chimeric heavy chain; also called GO11 chimeric IgG, light chain point mutant S95P; copies: 2 + 2
As to B12, in the experiment with human IL1RAP [4], the binding result is reported as “binds”.

B13: VK-H91S (antibody, V domains shown)
VH: QVHLQQSGPELVRPGTSVKISCEASGYIFLTYWMNWVKQRPGQGLEWIGQIFPASDSTYYNEMFKDKARFTVDKSSSTAYMQFSSLTSEDTAVYFCARSGPYSYYAGGYALDYWGQGTSVTVSS
VL: DIQMTQSPASLSASVGETVTITCRTSENINSYLAWYQQKQGKSPQLLVHYAKTLAEGVPSRFSGSGSGTQFSLKINSLKPEDFGSYYCQHSYGTSLTFGAGTKLELKR
notes: germlining point mutant, paired with the parental chimeric heavy chain; also called GO11 chimeric IgG, light chain point mutant H91S; copies: 2 + 2
In the case of B13, the binding result with human IL1RAP [4] is reported as “binds”.

B14: VK-H90Q (antibody, V domains shown)
VH: QVHLQQSGPELVRPGTSVKISCEASGYIFLTYWMNWVKQRPGQGLEWIGQIFPASDSTYYNEMFKDKARFTVDKSSSTAYMQFSSLTSEDTAVYFCARSGPYSYYAGGYALDYWGQGTSVTVSS
VL: DIQMTQSPASLSASVGETVTITCRTSENINSYLAWYQQKQGKSPQLLVHYAKTLAEGVPSRFSGSGSGTQFSLKINSLKPEDFGSYYCQQHYGTSLTFGAGTKLELKR
notes: germlining point mutant, paired with the parental chimeric heavy chain; also called GO11 chimeric IgG, light chain point mutant H90Q; copies: 2 + 2
Regarding B14, the binding result in the experiment with human IL1RAP [4] was “binds”.

B15: engrafted Fab (GO11 CDRs on IGKV1-39*01 and IGHV1-69*02) (Fab, V domains shown)
VH: QVQLVQSGAEVKKPGSSVKVSCKASGYIFLTYWMNWVRQAPGQGLEWMGQIFPASDSTYYNEMFKDRVTITADKSTSTAYMELSSLRSEDTAVYYCARSGPYSYYAGGYALDYWGQGTLVTVSS
VL: DIQMTQSPSSLSASVGDRVTITCRTSENINSYLAWYQQKPGKAPKLLIYYAKTLAEGVPSRFSGSGSGTDFTLTISSLQPEDFATYYCQHHYGTSLTFGQGTKLEIK
notes: Fab from E. coli periplasmic extract; constant parts not specified; also called HUMANIZED/GRAFT 005-G011 #A1
Regarding B15, the binding result with human IL1RAP [5] was “binds”.

(Values after US20240317868A1 (Boehringer Ingelheim, published 2024).)
